In test [1] the test system is inguinal lymph node cells. Description: Lymph node cell proliferation (stimulation index) to sensitizing antigen β2GPI after mucosal administration. The test is classed as in vivo, mice. Here is the method: Immunization: Subcutaneous immunization with human β2GPI: Human β2GPI was prepared from human plasma pool as described above. For immunization, human β2GPI was dissolved in PBS and mixed with equal volumes of Freund's incomplete adjuvant. Immunizations were performed by single subcutaneous injection of 10 μg antigen/mouse in 0.1 ml volume. Three days following the last mucosal administration of plaque associated molecules the mice received one immunization, and were sacrificed 10 days post immunization.
Proliferation assays: Mice were exposed to the tested antigen as described for assessment of atherosclerosis, and then immunized (one to three days following the last exposure) subcutaneously with 10 μg β2GPI in 0.1 ml PBS, prepared from purified human β2GPI as described above.
Proliferation was assayed ten days after immunization with the β2GPI as follows: Draining inguinal lymph nodes were prepared by mashing the tissues on 100 mesh screens. Red blood cells were lysed with cold sterile double distilled water (6 ml) for 30 seconds and 2 ml of NaCl 3.5% was added. Incomplete medium was added (10 ml), cells were centrifuged for 7 min at 1,700 rpm, resuspended in RPMI medium and counted in a haemocytometer at 1:20 dilution (10 μl cells+190 μl Trypan Blue). Proliferation was measured by the incorporation of [^3H] Thymidine into DNA in triplicate samples of 100 μl of the packed cells (1×10^6 cells/ml) in a 96 well microtiter plate. […] Thymidine (0.5 μCi/well) was added. After an additional 12-24 hours of incubation the cells were harvested and transferred to glass fiber filters using a cell harvester (Brandel) and counted using β-counter (Lumitron). Proliferation was measured by the incorporation of [^3H] thymidine into DNA during the final 12 h of incubation. The results are expressed as the stimulation index (S.I.): the ratio of the mean radioactivity (cpm) of the antigen to the mean background (cpm) obtained in the absence of the antigen. Standard deviation was always <10% of the mean cpm.
Tolerance induced by mucosal exposure to plaque-associated molecules may be mediated by suppression of specific immune responses to antigenic portions (epitopes) of these plaque associated molecules. Lymphocyte proliferation in response to mucosal (nasal and oral) exposure to human β2GPI was measured in […]. 9 male, 5 week old LDL-RD mice were divided into 3 groups. In group A (n=3) oral tolerance was induced with 100 μg/mouse β2GPI suspended in 0.1 ml PBS, administered by gavage, as described above, every other day for 5 days. In group B (n=3) nasal tolerance was induced with 10 μg/mouse β2GPI suspended in 10 μl PBS, administered intranasally as described above, every other day for 5 days. The mice in group C (n=3) received oral administration of 200 μl PBS every other day for 5 days. Immune reactivity was stimulated in all mice by immunization with human β2GPI as described above in the Materials and Methods section, one day after the last feeding. Ten days after the immunization lymph nodes were collected for assay of proliferation (as expressed in the Stimulation Index SI). All mice were fed normal chow-diet containing 4.5% fat by weight (0.02% cholesterol) and water ad libitum.

Test [2] deals with lymph node cells. Description: Lymph node cell proliferation (stimulation index) to oxLDL after oral administration. The test is classed as in vivo, mice. On the procedure:
Proliferation was measured by the incorporation of [^3H] thymidine into DNA during the final 12 h of incubation. The results were computed as stimulation index: the ratio of the mean cpm of the antigen to the mean background cpm obtained in the absence of the antigen.
[…] Three days after the final administration of peptides, the mice were immunized with OxLDL in incomplete Freund's adjuvant, as described in the Examples above, and lymph node cells assessed for antigen (OxLDL) stimulation of proliferation 10 days later. Proliferation was assessed by incorporation of thymidine, expressed as the Stimulation Index, as described.

The subject of test [3] is LDL receptor deficient mice. The following applies: oral administration, U.S. Ser. No. 09/806,400; cited from earlier work.
Test [4] has as its system atherosclerotic lesions. Description: Immunohistochemistry of atherosclerotic lesions (β2GPI, CD3, Mac-1). It is filed as in vivo, mice. From the text: Immunohistochemistry of atherosclerotic lesions: Immunohistochemical staining for CD3, macrophages and β2GPI content were done on aortic sinus 5-μm-thick frozen sections. Primary antibodies used for probing were rat anti-mouse CD3, rat anti-mouse Mac-1 and a polyclonal rat anti-mouse β2GPI antibodies (George et al Circulation 2000; 102:1822-7). Slides were developed with the three amino-9-ethylcarbonasole (AEC) substrate. Sections were counterstained with hematoxylin. Spleen sections were used as a positive control. Staining in the absence of 1st or 2nd antibody was used as a negative control. β2GPI presence were evaluated by its occupancy of plaque area by computerized morphometry as described previously for VCAM-1 (George et al, Circ Res. 2000; 86:1203-10).
No effect of oral β2GPI on the number of CD3 positive cells (0-5 cells/plaque in all groups; data not shown) or macrophage (Mac-1 positive) content of the fatty streaks was observed.

Test [5] has as its system lymph node cells. Description: Cytokine secretion by lymph node cells of tolerized mice (ELISA of conditioned medium). The test is classed as in vivo. On the procedure:
IFN-γ, IL-4, IL-10 and TGF-β secretion in tolerized lymph nodes: Conditioned medium was obtained from the lymph node proliferation experiments following 48 h of culture in the presence of β2GPI.

The subject of test [6] is anti-β2GPI antibodies and antibody isotypes. Nature of the test: Serum antibody levels and isotypes (ELISA). The settings on record: oral administration, subsequently immunized with β2GPI; data not shown. It is filed as in vivo, mice. On the procedure: Detection of anti-b2GPI antibodies and antibody isotypes: β2GPI (10 μg/ml) was coated onto flat bottom 96-well ELISA plates (Nalge-Nunc, Int. Rochester, N.Y.) by overnight incubation and the assay was performed as previously described (George et al, Circulation, 1998; 15:1108-15) IgG, IgA and IgM isotypes in the sera of β2GPI tolerant and non-tolerant mice were determined by an ELISA kit (Southern Biotechnology Associates, Birmingham, Ala., USA) according to the manufacture's instructions.
None of the orally-administered antigens induced production of antiβ2GPI antibodies (data not shown).

B1: β2GPI: beta2-glycoprotein I, species not stated at the place (human or bovine; FIG. 7 legend says bovine) (protein, UniProt P17690 20-345, looked up)
Beta-2-glycoprotein 1: GRTCPKPDELPFSTVVPLKRTYEPGEQIVFSCQPGYVSRGGIRRFTCPLTGLWPINTLKCMPRVCPFAGILENGTVRYTTFEYPNTISFSCHTGFYLKGASSAKCTEEGKWSPDLPVCAPITCPPPPIPKFASLSVYKPLAGNNSFYGSKAVFKCLPHHAMFGNDTVTCTEHGNWTQLPECREVRCPFPSRPDNGFVNHPANPVLYYKDTATFGCHETYSLDGPEEVECSKFGNWSAQPSCKASCKLSIKRATVIYEGERVAIQNKFKNGMLHGQKVSFFCKHKEKKCSYTEDAQCIDGTIEIPKCFKEHSSLAFWKTDASDVKPC
Regarding B1, in test [1] (mucosal administration to LDL-RD mice, Examples 3 and 6), the “reduction of the stimulation index of lymph node cells” value is recorded as “up to 70%”. Further, the “suppression of primary cellular response (lymph node cell proliferation) to β2GPI” value in test [1] (oral 5 doses of 500 μg per mouse, stimulation with 2.0 μg/ml β2GPI, LDL-RD mice) was more than 60%. Besides, in test [1] (oral administration, mice immunized with BSA, results not shown), the “influence on primary cellular response to BSA” value is “did not influence”. Moreover, in test [2] (oral 5 doses of 500 μg per mouse, stimulation with 20 μg/ml oxLDL, LDL-RD mice), the “suppression of primary cellular response (lymph node cell proliferation) to oxLDL” value is on record as 74%. In test [2] (oral, 3 doses of 100 μg, LDL-RD mice immunized with OxLDL), the “reduction in Stimulation Index of OxLDL-sensitized lymph node cells” value is on record as 87%. Moreover, the “reduction in atherogenesis by oral tolerance” value in test [3] is “approximately 30%”. Also, in test [4] (oral 500 μg/dose, LDL-RD mice, data not shown), the “content of plaque-expressed β2GPI, mean percent occupancy” value was found to be 15±5%. The “effect on number of CD3 positive cells or macrophage (Mac-1 positive) content of the fatty streaks” value in test [4] (oral administration, LDL-RD mice) is listed as “No effect”. Besides, in test [4] (oral administration, all groups, data not shown), the “number of CD3 positive cells” value was 0-5 cells/plaque. The “TGF-β levels in the conditioned medium of lymph node cells” value in test [5] (cells from β2GPI-tolerized mice) is given as “below the detection threshold”. Besides, the “levels of IFN-γ secreted by lymph node cells” value in test [5] (cells from β2GPI-tolerized mice, stimulation with β2GPI, mean value) came to 1802 ± 588 pg/mL. Further, the “Levels of IL-4 in medium relative to control animals” value in test [5] (oral administration, immunized with β2GPI, cells incubated 48 h with β2GPI, p<0.01) is “three times higher”. Besides, in test [5] (oral administration, immunized with β2GPI, in-vitro priming with β2GPI, p<0.05), the “IL-10 secretion relative to BSA-treated controls” value is on record as 2.6 times. Moreover, in test [6], the “IgM, IgA, or IgG total antibody levels and isotype distribution” value is “did not alter”.

(Values after patent US20090068207A1, “Compositions Containing Beta 2-Glycoprotein I-Derived Peptides for the Prevention and/or Treatment of Vascular Disease” (Vascular Biogenics Ltd., priority 2005, published 2009).)
